Data: article PMC2849977 (Nature structural & molecular biology, 2009)

Target: PHF8 (Homo sapiens, UniProt Q9UPP1)
Experiment: PHF8 demethylation time course
Assay type: biochemical
Conditions: equimolar ratio added

Sequence of PHF8 (Q9UPP1 37-483): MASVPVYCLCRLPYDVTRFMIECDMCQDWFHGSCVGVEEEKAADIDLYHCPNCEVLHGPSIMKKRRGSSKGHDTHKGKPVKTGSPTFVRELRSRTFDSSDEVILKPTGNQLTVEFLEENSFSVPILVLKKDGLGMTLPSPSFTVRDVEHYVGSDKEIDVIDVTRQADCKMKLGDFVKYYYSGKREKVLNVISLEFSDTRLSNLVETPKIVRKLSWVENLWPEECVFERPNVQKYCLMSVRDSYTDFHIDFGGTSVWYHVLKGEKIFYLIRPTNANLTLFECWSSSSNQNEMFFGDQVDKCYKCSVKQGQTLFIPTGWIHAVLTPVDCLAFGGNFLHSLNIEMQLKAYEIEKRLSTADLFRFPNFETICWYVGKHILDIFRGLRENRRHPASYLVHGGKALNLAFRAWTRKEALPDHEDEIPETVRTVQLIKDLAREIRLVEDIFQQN

Substance | effect of added peptide in trans on demethylation of H3_1–24K9me2 by PHF8
H3_1–12K4me3: H3K4me3 modification in a short H3_1–12 peptide | inhibitory effect
H3_1–21K4me3: H3K4me3 modification in a long H3_1–21 peptide | inhibitory effect
